Results published in publication PMC9537296 (Scientific Reports, 2022).

Experiments:
[1] = target: T1, FcγRIA (Homo sapiens, UniProt P12314); test: FcγRIA binding by SPR; conditions: SPR BIACORE T200, 25 °C, steady-state affinity fit; read-out: Binding affinities (KD) FcγRIA
T1 construct: purchased
Procedure: (§1) All experiments were carried out on a BIACORE T200 instrument (GE Healthcare, USA) at 25 °C. Amine coupling chemistry was used to immobilize FcγRs on the surface of a CM5 sensor chip. For activation, a mixture of NHS and EDC solution was injected onto a CM5 sensor chip for 7 min at a flow rate of 10 μL/min. FcγRIA, FcγRIIA, FcγRIIB/C, FcγRIIIA, and FcγRIIIB were immobilized on CM5 chips by injecting 5 μg/mL of FcγRIA, 10 μg/mL of FcγRIIA, 2 μg/mL of FcγRIIIA, 10 μg/mL of FcγRIIIB, and 10 μg/mL of FcγRIIB/C diluted with 10 mM sodium acetate (pH 4.5) onto CM5 chips at a flow rate of 5 μL/min. The target RU was 1500 RU for FcγRIA and FcγRIIA, 3,000 RU for FcγRIIB/C and FcγRIIIB, and 1,000 RU for FcγRIIIA. To deactivate unreacted moieties, the chip surface was blocked with 1 M ethanolamine/HCl (pH 8.5) for 7 min at a flow rate of […]. HMC001 and I.V.-Globulin SN were diluted with running buffer to 500, 250, 125, 62.5, and 31.25 nM. HM15136 was diluted with running buffer to 486, 243, 121.5, 60.75, and 30.38 nM. The test materials were injected for 10 min (for Fc immobilized with FcγRIA and FcγRIIA) or 15 min (for Fc immobilized with FcγRIIIA, FcγRIIIB, and FcγRIIB/C) for association, followed by 10 min-dissociation at 20 μL/min. Binding affinity was evaluated with a steady-state affinity fitting model in BIACORE T200 Evaluation Software version 3.0. […]

[2] = target: T2, FcγRIIA (Homo sapiens, UniProt P12318); test: FcγRIIA binding by SPR; conditions: SPR BIACORE T200, 25 °C, steady-state affinity fit; read-out: Binding affinities (KD) FcγRIIA
T2 construct: purchased
T2 sequence (P12318 34-317): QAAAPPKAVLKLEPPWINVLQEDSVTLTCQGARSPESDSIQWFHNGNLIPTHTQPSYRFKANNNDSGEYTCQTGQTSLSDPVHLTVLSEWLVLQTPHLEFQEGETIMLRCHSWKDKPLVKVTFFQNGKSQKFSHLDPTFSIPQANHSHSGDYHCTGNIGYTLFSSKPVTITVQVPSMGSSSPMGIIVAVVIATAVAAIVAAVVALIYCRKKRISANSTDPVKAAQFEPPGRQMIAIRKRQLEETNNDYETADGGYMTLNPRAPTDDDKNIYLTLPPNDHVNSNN
Procedure: as §1

[3] = target: T3, FcγRIIB/C (Homo sapiens, UniProt P31994); test: FcγRIIB/C binding by SPR; conditions: SPR BIACORE T200, 25 °C, steady-state affinity fit; read-out: Binding affinities (KD) FcγRIIB/C
T3 construct: purchased
T3 sequence (P31994 43-310): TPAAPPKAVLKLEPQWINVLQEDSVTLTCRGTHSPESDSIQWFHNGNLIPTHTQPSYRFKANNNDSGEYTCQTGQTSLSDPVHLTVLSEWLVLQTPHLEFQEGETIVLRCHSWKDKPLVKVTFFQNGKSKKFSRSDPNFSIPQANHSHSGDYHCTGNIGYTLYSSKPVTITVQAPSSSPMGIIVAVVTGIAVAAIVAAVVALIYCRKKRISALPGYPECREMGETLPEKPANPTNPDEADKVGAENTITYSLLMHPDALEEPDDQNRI
Procedure: All experiments were carried out on a BIACORE T200 instrument (GE Healthcare, USA) at 25 °C. Amine coupling chemistry was used to immobilize FcγRs on the surface of a CM5 sensor chip. For activation, a mixture of NHS and EDC solution was injected onto a CM5 sensor chip for 7 min at a flow rate of 10 μL/min. FcγRIA, FcγRIIA, FcγRIIB/C, FcγRIIIA, and FcγRIIIB were immobilized on CM5 chips by injecting 5 μg/mL of FcγRIA, 10 μg/mL of FcγRIIA, 2 μg/mL of FcγRIIIA, 10 μg/mL of FcγRIIIB, and 10 μg/mL of FcγRIIB/C diluted with 10 mM sodium acetate (pH 4.5) onto CM5 chips at a flow rate of 5 μL/min. The target RU was 1500 RU for FcγRIA and FcγRIIA, 3,000 RU for FcγRIIB/C and FcγRIIIB, and 1,000 RU for FcγRIIIA. To deactivate unreacted moieties, the chip surface was blocked with 1 M ethanolamine/HCl (pH 8.5) for 7 min at a flow rate of 10 L/min. […] The test materials were injected for 10 min (for Fc immobilized with FcγRIA and FcγRIIA) or 15 min (for Fc immobilized with FcγRIIIA, FcγRIIIB, and FcγRIIB/C) for association, followed by 10 min-dissociation at 20 μL/min. Binding affinity was evaluated with a steady-state affinity fitting model in BIACORE T200 Evaluation Software version 3.0. Blank-subtracted sensograms (RU form reference channel and blanks were subtracted) were used for evaluation.

[4] = target: human C1q (Homo sapiens, UniProt P02745+P02746+P02747); test: C1q binding by SPR; conditions: SPR BIACORE T200, test material immobilized, steady-state affinity fit; read-out: Binding affinities (KD) C1q
Procedure: The target immobilization of the three materials was 3000 RU. To stabilize the sensor chip, running buffer (HBS-EP) was injected for 10 min, followed by 10 min dissociation at 25 μL/min before test material injection. Then, regeneration buffer was injected for 30 s at 25 μL/min; this step was repeated three times. C1q was diluted with running buffer to 50, 25, 12.5, 6.25, and 3.125 nM and injected for 6 min for association, followed by 10-min dissociation at 25 μL/min. The remaining C1q was regenerated with regeneration buffer for 30 s at 25 μL/min; this step was repeated three times. Binding affinity was evaluated with a steady-state affinity fitting model in BIACORE T200 Evaluation Software version 3.0. Blank-subtracted sensograms (RU form reference channel and blank were subtracted) were used for evaluation.

[5] = target: T4, FcγRIIIA (Homo sapiens, UniProt P08637); test: FcγRIIIA binding by SPR; conditions: SPR BIACORE T200, 25 °C, steady-state affinity fit; read-out: Binding affinities (KD) FcγRIIIA
T4 construct: purchased
Procedure: as §1

[6] = target: T5, FcγRIIIB (Homo sapiens, UniProt O75015); test: FcγRIIIB binding by SPR; conditions: SPR BIACORE T200, 25 °C, steady-state affinity fit; read-out: Binding affinities (KD) FcγRIIIB
T5 construct: purchased
Procedure: as §1

[7] = system: hyperinsulinemic hypoglycemia; conditions: meta-analysis of six cohorts (1142 subjects); cited from earlier work
Source text: Diazoxide, a first-line therapy, is a nondiuretic benzothiadizine originally formulated as a peripheral vasodilator for the treatment of hypertension. […] Octreotide—a synthetic peptide analog of somatostatin—has been frequently used as a second-line therapy to treat patients with CHI who are not res ...

T1 sequence (P12314 16-374): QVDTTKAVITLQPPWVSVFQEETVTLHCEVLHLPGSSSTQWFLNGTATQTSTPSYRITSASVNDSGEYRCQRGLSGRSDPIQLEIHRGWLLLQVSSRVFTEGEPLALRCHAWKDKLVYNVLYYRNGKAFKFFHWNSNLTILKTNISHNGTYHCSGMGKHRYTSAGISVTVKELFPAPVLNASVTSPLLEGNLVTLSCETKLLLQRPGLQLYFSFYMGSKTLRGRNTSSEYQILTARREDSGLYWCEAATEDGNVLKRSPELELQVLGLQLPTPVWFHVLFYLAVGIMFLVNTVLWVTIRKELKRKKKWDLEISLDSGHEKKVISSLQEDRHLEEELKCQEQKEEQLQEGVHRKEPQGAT
T4 sequence (P08637 17-254): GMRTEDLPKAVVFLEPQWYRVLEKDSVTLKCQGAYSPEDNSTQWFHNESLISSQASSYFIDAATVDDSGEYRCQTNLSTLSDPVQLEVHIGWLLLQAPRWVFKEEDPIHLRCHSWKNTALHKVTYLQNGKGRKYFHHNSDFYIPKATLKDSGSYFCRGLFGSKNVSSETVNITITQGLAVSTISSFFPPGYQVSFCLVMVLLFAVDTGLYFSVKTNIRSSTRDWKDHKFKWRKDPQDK
Sequence of human C1q (P02745 23-245): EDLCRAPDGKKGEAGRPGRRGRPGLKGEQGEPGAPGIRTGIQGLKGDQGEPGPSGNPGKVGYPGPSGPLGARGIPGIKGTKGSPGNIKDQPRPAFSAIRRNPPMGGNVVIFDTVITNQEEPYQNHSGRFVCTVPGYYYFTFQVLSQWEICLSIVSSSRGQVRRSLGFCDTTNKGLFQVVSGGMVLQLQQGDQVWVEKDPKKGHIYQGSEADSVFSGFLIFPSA
Sequence of human C1q (P02746 28-253): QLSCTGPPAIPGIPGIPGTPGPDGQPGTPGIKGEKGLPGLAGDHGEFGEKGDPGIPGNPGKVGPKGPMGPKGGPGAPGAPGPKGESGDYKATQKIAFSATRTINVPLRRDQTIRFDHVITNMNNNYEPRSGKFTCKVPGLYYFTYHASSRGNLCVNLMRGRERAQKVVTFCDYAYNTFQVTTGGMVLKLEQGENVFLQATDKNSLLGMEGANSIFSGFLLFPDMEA
Sequence of human C1q (P02747 29-245): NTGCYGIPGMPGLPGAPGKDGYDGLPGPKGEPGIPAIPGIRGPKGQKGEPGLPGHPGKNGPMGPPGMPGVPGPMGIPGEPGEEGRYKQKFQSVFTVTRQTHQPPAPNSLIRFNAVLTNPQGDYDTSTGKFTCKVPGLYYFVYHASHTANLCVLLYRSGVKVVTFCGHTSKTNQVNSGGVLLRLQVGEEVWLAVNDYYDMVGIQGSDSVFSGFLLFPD
T5 sequence (O75015 17-233): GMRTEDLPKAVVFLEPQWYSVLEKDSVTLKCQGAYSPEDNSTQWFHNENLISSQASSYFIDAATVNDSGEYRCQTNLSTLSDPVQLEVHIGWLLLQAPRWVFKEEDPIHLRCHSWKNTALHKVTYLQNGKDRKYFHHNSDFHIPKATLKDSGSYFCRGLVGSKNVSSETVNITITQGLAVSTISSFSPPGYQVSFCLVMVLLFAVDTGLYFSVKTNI

Kd [1] [µM]	Kd [2] [µM]	Kd [3] [µM]	Kd [4] [µM]	Kd [5] [µM]	Kd [6] [µM]	Compound	response rate [7] [%]
> 0.5	> 0.5	> 0.5	> 0.5	> 0.5	> 0.5	HMC001: Fc fragment of human immunoglobulin G4, derived from Escherichia coli, lacks glycosylation	
						CC1=NS(=O)(=O)c2cc(Cl)ccc2N1 [diazoxide, Diazoxide]	71
